This note sets out measurements from article PMC4072508, “Genome-Wide Prediction and Validation of Peptides That Bind Human Prosurvival Bcl-2 Proteins” (PLoS Computational Biology, 2014).

One assay has as its target T1, Mcl-1, Q07820.
T1 chain: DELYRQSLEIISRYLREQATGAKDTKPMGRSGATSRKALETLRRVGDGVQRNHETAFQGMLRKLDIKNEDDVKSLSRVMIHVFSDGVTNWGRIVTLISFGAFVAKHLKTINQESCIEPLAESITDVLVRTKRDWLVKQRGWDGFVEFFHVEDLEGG
In words: peptide SPOT array, c-Myc-tagged receptor at 1 uM or 100 nM, anti-c-Myc-Cy3.

The target in the next assay is Bcl-xL, Q07817. The description is as above.
Chain of Bcl-xL, Q07817 (Q07817 1-209): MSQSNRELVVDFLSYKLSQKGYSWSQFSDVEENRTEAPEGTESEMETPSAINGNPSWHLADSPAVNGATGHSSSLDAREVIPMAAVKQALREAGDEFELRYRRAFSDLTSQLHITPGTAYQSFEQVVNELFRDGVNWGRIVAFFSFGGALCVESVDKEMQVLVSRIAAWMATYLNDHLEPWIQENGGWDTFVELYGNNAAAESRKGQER

Take DLSAVTLSRELQAMLEQLAENYHNTW [RYR1]: the SPOT signal as a fraction of Bim BH3's signal on the same receptor and array in the assay with Mcl-1, Q07820 amounted to 0.02; with Bcl-xL, Q07817, 0.02.

On to KNIAGALAFWMANASELLNFIKQDRD [MLLT4], for which the SPOT signal as a fraction of Bim BH3's signal on the same receptor and array turned out to be 0.03 with Mcl-1, Q07820 and 0.03 with Bcl-xL, Q07817.

NKSLTTLGLVDSSLADQAAGKGKSKF: the SPOT signal as a fraction of Bim BH3's signal on the same receptor and array with Mcl-1, Q07820 stood at 0.19; with Bcl-xL, Q07817, 0.29.

Regarding VLSRIEAGRSDKSVADEFGISKSTFY [TIGD7_3eA], the SPOT signal as a fraction of Bim BH3's signal on the same receptor and array turned out to be 0.02 in the assay with Mcl-1, Q07820 and 0.02 in the assay with Bcl-xL, Q07817.

KKCQDMIMTELTNALDDVVVFYNDKA [ITPR3]: the SPOT signal as a fraction of Bim BH3's signal on the same receptor and array with Mcl-1, Q07820 turned out to be 0.02; in the assay with Bcl-xL, Q07817, 0.02.

For IGFFIAFGIADGKMGDQAKLMVDFFN, the SPOT signal as a fraction of Bim BH3's signal on the same receptor and array with Mcl-1, Q07820 was 0.01; with Bcl-xL, Q07817 it was 0.02.

On to SQGDKRVAFFMRKGADCLSKWVGESE, for which the SPOT signal as a fraction of Bim BH3's signal on the same receptor and array with Mcl-1, Q07820 stood at 0.06; with Bcl-xL, Q07817, 0.13.

Take AFTEREASEIMKSIGEAIQYLHSINI [MAPKAPK2]: the SPOT signal as a fraction of Bim BH3's signal on the same receptor and array with Mcl-1, Q07820 amounted to 0.02; in the assay with Bcl-xL, Q07817, 0.02.

As for NKSLTTLGLVISSLLDQAAGKGKSKF, the SPOT signal as a fraction of Bim BH3's signal on the same receptor and array is 0.18 with Mcl-1, Q07820 and 0.26 in the assay with Bcl-xL, Q07817.

As to SALETQVAAAVQALADDYLAQLSLEP [TRO], the SPOT signal as a fraction of Bim BH3's signal on the same receptor and array with Mcl-1, Q07820 is 0.01; in the assay with Bcl-xL, Q07817 it was 0.01.

On to SPYVFNGGTIDAIAGEDFAIVASDTR [PSMB1], for which the SPOT signal as a fraction of Bim BH3's signal on the same receptor and array was determined as 0.01 with Mcl-1, Q07820 and 0.01 with Bcl-xL, Q07817.

With TPSRSALSSELSLVGDTTGDTLEKFV [CREBBP], the SPOT signal as a fraction of Bim BH3's signal on the same receptor and array is 0.01 in the assay with Mcl-1, Q07820 and 0.02 with Bcl-xL, Q07817.

Turning to DVGTGAGLLEIKKIGDEYFTFITDCK [CCT3], the SPOT signal as a fraction of Bim BH3's signal on the same receptor and array with Mcl-1, Q07820 came to 0.01; in the assay with Bcl-xL, Q07817, 0.01.

For DSLAKFAGRKDKDCGEDLLVEISEVL [PCM1], the SPOT signal as a fraction of Bim BH3's signal on the same receptor and array in the assay with Mcl-1, Q07820 came to 0.01; with Bcl-xL, Q07817, 0.01.

Turning to SQGDKRVAFFDRKGADCLSKWVGESE, the SPOT signal as a fraction of Bim BH3's signal on the same receptor and array was 0.02 with Mcl-1, Q07820 and 0.02 with Bcl-xL, Q07817.

Take PSLSKELTSSLAGVGDVSFDSDSQFP [CRTC1]: the SPOT signal as a fraction of Bim BH3's signal on the same receptor and array with Mcl-1, Q07820 was found to be 0.01; with Bcl-xL, Q07817, 0.01.

For the molecule ERAISCMGQIICNLLDNLGSDLPNTL [CAND1], the SPOT signal as a fraction of Bim BH3's signal on the same receptor and array was found to be 0.01 with Mcl-1, Q07820 and 0.02 with Bcl-xL, Q07817.

As to GLTWDPVGKYIASQADDRSLKVWRTL [HIRA], the SPOT signal as a fraction of Bim BH3's signal on the same receptor and array was determined as 0.94 with Mcl-1, Q07820 and 0.81 in the assay with Bcl-xL, Q07817.

Take CALIAGATLHVAWLLDSQVILVQQGQ [PPM1F]: the SPOT signal as a fraction of Bim BH3's signal on the same receptor and array in the assay with Mcl-1, Q07820 was found to be 0.01; with Bcl-xL, Q07817, 0.02.

VDFYQPTCIVLQCGLDSLGCDRLGCF [HDAC3]: the SPOT signal as a fraction of Bim BH3's signal on the same receptor and array was found to be 0.01 with Mcl-1, Q07820 and 0.01 in the assay with Bcl-xL, Q07817.

For the molecule RDPQGWVAGNDSARGDGAAGFTLPGF [MST1R], the SPOT signal as a fraction of Bim BH3's signal on the same receptor and array came out at 0.02 with Mcl-1, Q07820 and 0.01 with Bcl-xL, Q07817.

With NKRHRPIGIGDQGLADAFILMRYPFE, the SPOT signal as a fraction of Bim BH3's signal on the same receptor and array was found to be 0.02 with Mcl-1, Q07820 and 0.02 with Bcl-xL, Q07817.

As for CILNSFYGYVMRKGARWYSMEMAGIV [POLE], the SPOT signal as a fraction of Bim BH3's signal on the same receptor and array with Mcl-1, Q07820 turned out to be 0.12; with Bcl-xL, Q07817, 0.18.

Consider RCELQICGLAMADAGEYLCVCGQERT [OBSCN], for which the SPOT signal as a fraction of Bim BH3's signal on the same receptor and array is 0.01 with Mcl-1, Q07820 and 0.01 with Bcl-xL, Q07817.

Turning to SKFVILSAHKDVFIGDTLTRQVTAQD [NEDD9], the SPOT signal as a fraction of Bim BH3's signal on the same receptor and array with Mcl-1, Q07820 is 0.02; with Bcl-xL, Q07817, 0.02.

Turning to IQQDLGCGASLGVISDNLLVTGGQGC [SCAP], the SPOT signal as a fraction of Bim BH3's signal on the same receptor and array stood at 0.01 with Mcl-1, Q07820 and 0.02 with Bcl-xL, Q07817.

In the case of AICIEEIGVWDKMYSDAFLNDSYLKY, the SPOT signal as a fraction of Bim BH3's signal on the same receptor and array with Mcl-1, Q07820 was found to be 0.03; with Bcl-xL, Q07817, 0.05.

For the molecule SHALICISHWILGIGDRHLNNFMVAM [PRKDC], the SPOT signal as a fraction of Bim BH3's signal on the same receptor and array with Mcl-1, Q07820 is 0.02; in the assay with Bcl-xL, Q07817, 0.02.

Regarding NKRHRPIGIGVQGLLDAFILMRYPFE, the SPOT signal as a fraction of Bim BH3's signal on the same receptor and array with Mcl-1, Q07820 came to 0.05; with Bcl-xL, Q07817, 0.04.

Turning to GSGLHGWAFTLKQFLEMYVAKFAAKG [EEF2], the SPOT signal as a fraction of Bim BH3's signal on the same receptor and array in the assay with Mcl-1, Q07820 came out at 0.12; with Bcl-xL, Q07817, 0.25.

Consider QQMHHNAATAMAQRLDMLRGLSPRES [NCOR2], for which the SPOT signal as a fraction of Bim BH3's signal on the same receptor and array amounted to 0.08 with Mcl-1, Q07820 and 0.13 with Bcl-xL, Q07817.

On to AICIEEIGVWMKMYLDAFLNDSYLKY, for which the SPOT signal as a fraction of Bim BH3's signal on the same receptor and array was 0.03 with Mcl-1, Q07820 and 0.02 with Bcl-xL, Q07817.

Consider IGFFIAFGIAMGKMLDQAKLMVDFFN, for which the SPOT signal as a fraction of Bim BH3's signal on the same receptor and array in the assay with Mcl-1, Q07820 stood at 0.03; in the assay with Bcl-xL, Q07817 it was 0.03.

For RIEMWISILELNELLEYAAVELHQAK, the SPOT signal as a fraction of Bim BH3's signal on the same receptor and array came to 0.03 with Mcl-1, Q07820 and 0.02 with Bcl-xL, Q07817.

Take SKFVILSAHKLVFILDTLSRQAKAAD [BCAR1]: the SPOT signal as a fraction of Bim BH3's signal on the same receptor and array in the assay with Mcl-1, Q07820 amounted to 0.02; with Bcl-xL, Q07817, 0.07.

On to QLSKPGAALYDQSIGEGFKEAVQYVL [SOS1], for which the SPOT signal as a fraction of Bim BH3's signal on the same receptor and array in the assay with Mcl-1, Q07820 amounted to 0.02; with Bcl-xL, Q07817, 0.02.

Regarding RLAHEHHCLRIKILLDCYYCVSGLPE [ADCY8], the SPOT signal as a fraction of Bim BH3's signal on the same receptor and array with Mcl-1, Q07820 was determined as 0.03; with Bcl-xL, Q07817 it was 0.02.
